Test results published in publication PMC11044963, “Probing the CRL4^DCAF12 interactions with MAGEA3 and CCT5 di-Glu C-terminal degrons” (PNAS Nexus, 2024).

Tests used:
[1] = biological target: FITC-labeled CCT5 C-terminal degron peptide (human); test: fluorescence polarisation; direct binding; protein titrated from 4 µM in two-fold steps against 20 nM FITC peptide; 20 mM Tris pH 7.5, 150 mM NaCl, 5% glycerol, 0.5 mM TCEP, 0.01% Triton; 45 min at room temperature
[2] = biological target: FITC-labeled MAGEA3 C-terminal degron peptide; test: as above

Kd [1]: 0.13 µM
Kd [2]: 0.06 µM
Substance: DDB1–DCAF12–DDA1 complex (from UniProt Q5T6F0 1-453; Q5T6F0 1-453; Q9BW61 1-102)
